# Source: publication PMC11698047, “The dual Ras-association domains of Drosophila Canoe have differential roles in linking cell junctions to the cytoskeleton during morphogenesis” (Journal of Cell Science, 2024)
# Several values for one entry are separate records, joined by “and”; a condition that tells them apart may be missing. Equal entries are not always repeated.
# B1: Drosophila melanogaster Canoe RA1 domain (amino acids 1-137, including the αN helix) (domain or fragment, UniProt Q24279 1-137, looked up)
# chain: MSHDKKMLDREAVRSVIQQWNANRLDLFALSEPDENLLFHGVMRFYFQDAGQKVATKCIRVASDATVTDVIDTLIEKFRPDMRMLSVPNYALYEVHANGEERRLNADEKPLLVQLNWHIDDREGRFLLKNIDQKTTP
# notes: Canoe (Cno), Drosophila melanogaster, RA1 domain with its N-terminal αN helix, amino acids 1-137; The methods say that some RA1 preparations were purified without thrombin treatment; also called Cno RA1; source: E. coli BL21 DE3 pLysS, purified (Ni-NTA, thrombin cleavage, benzamidine sepharose, second Ni-NTA); not shown: His6, N-terminal, cleaved
# B2: Drosophila melanogaster GTPase Rap1G12V (amino acids 1-180), GMPPNP-loaded (enzyme, UniProt P08645 1-180, looked up)
# chain: MREYKIVVLGSVGVGKSALTVQFVQCIFVEKYDPTIEDSYRKQVEVDGQQCMLEILDTAGTEQFTAMRDLYMKNGQGFVLVYSITAQSTFNDLQDLREQILRVKDTDDVPMVLVGNKCDLEEERVVGKELGKNLATQFNCAFMETSAKAKVNVNDIFYDLVRQINKKSPEKKQKKPKKSL
# notes: Rap1 GTPase, Drosophila melanogaster, amino acids 1-180, constitutively active G12V mutant; Loaded with the non-hydrolysable nucleotide GMPPNP and Mg2+ (formula mass 21.0 kDa); Cloned NdeI/EcoRI in pET28; a few vector residues probably remain at the N-terminus after thrombin cleavage (surmised); also called Rap1-GMPPNP; Rap1G12V-GMPPNP; source: E. coli BL21 DE3 pLysS, purified (Ni-NTA, thrombin …)
# B3: Drosophila melanogaster Canoe RA2 domain (amino acids 222-350, including the αN helix), with His-tag (domain or fragment, UniProt Q24279 222-350, looked up)
# chain: TRSISNPEAVMRRRRQQKLEKKLQQFRSRDGGPDTGGTLKIYGESLCQDVPYKTLLLSIRDCAQAVVREMLTKYGLEKADPLHYCLVQVNSDGTEYILDDDECPLSILMNHPTSRGSIMFHVRRRPADS
# notes: Canoe (Cno), Drosophila melanogaster, RA2 domain with its N-terminal αN helix, amino acids 222-350; Cloned NdeI/EcoRI in pET28; also called Cno RA2; RA2 with His-tag; source: E. coli BL21 DE3 pLysS, purified (Ni-NTA, without thrombin treatment); not shown: His6, N-terminal, kept
# How the values were obtained:
# Conditions in all cases: both partners purified
# [1] = biological target: B2; assay: ITC; GMPPNP-loaded Rap1G12V (150-670 µM for RA1; 650-1200 µM for RA2) injected into the cell with RA1 (20-50 µM) or RA2 (42-80 µM); 25°C, buffer C (25 mM HEPES-NaOH pH 7.5, 100 mM NaCl, 5 mM MgCl2, 0.1% β-ME); one-site binding model
# [2] = biological target: B1; assay: as above
# [3] = biological target: B3; assay: as above
# [4] = biological target: B1; assay: SEC-MALS; 100 µl of individual proteins (200 µM) or RA domain-Rap1G12V-GMPPNP complexes (200 µM complex) on Superdex 200, 0.5 ml/min, buffer C (25 mM HEPES-NaOH pH 7.5, 100 mM NaCl, 5 mM MgCl2, 0.1% β-ME) with 0.2 g/l sodium azide; in duplicate
Kd [1],dH [2],stoichiometry N [2],dH [3],stoichiometry N [3],stoichiometry N [4],Binder
4.5 µM and 5.9 µM,,,,,,B1
,-4.38 kcal/mol and -4.79 kcal/mol,0.717,-3.07 kcal/mol and -2.18 kcal/mol and -2.72 kcal/mol,0.755 and 0.73 and 0.63,1,B2
8.8 µM and 7.9 µM and 8.7 µM,,,,,,B3
